In the experiment the target is Human CD137 ECD (human). Briefly: SPR, vs parent H183/L072. (In SPR one partner is held on a chip, and binding of the other changes the refractive index at the surface.)

Changes are numbered by the printed parent chain. In names and notes the source's numbering stands.

Chain of Human CD137 ECD (human) (chain, as listed by the source limits assumed): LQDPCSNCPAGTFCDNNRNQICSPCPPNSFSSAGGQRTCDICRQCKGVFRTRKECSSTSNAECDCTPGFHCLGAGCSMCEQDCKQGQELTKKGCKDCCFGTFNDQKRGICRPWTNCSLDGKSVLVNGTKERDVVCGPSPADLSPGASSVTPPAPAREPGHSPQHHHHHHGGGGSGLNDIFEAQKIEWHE

B1: dBBDu183H S100aE / dBBDu072L (antibody, name in Kabat numbering, V domains shown)
VH: QVQLVESGGGLVQPGRSLRLSCAASGFTFSNAWMHWVRQAPGKGLEWVAQIKDKGNAYAAYYAPSVKGRFTISRDDSKNSIYLQMNSLKTEDTAVYYCHYVHYASAETVLPAFGVDAWGQGTTVTVSS
VL: DIVMTQSPLSLPVTPGEPASISCQASQELVHMNRNTYLHWYQQKPGQAPRLLIYKVSNRFPGVPDRFSGSGSGTDFTLKISRVEAEDVGVYYCAQGTSVPFTFGQGTKLEIK
On to B1, for which the fold change of affinity turned out to be 0 fold.

B2: dBBDu183H S100aH / dBBDu072L (antibody, name in Kabat numbering, V domains shown)
VH: B1 VH with E107H
VL: B1 VL
Turning to B2, the fold change of affinity was 0 fold.

B3: dBBDu183H F100gK / dBBDu072L (antibody, name in Kabat numbering, V domains shown)
VH: B1 VH with E107S, F113K
VL: B1 VL
In the case of B3, the fold change of affinity was found to be 0 fold.

B4: dBBDu183H V100iE / dBBDu072L (antibody, name in Kabat numbering, V domains shown)
VH: B1 VH with E107S, V115E
VL: B1 VL
In the case of B4, the fold change of affinity worked out at 0 fold.

B5: dBBDu183H Y94K / dBBDu072L (antibody, name in Kabat numbering, V domains shown)
VH: B1 VH with Y100K, E107S
VL: B1 VL
Consider B5, for which the fold change of affinity stood at 0 fold.

B6: dBBDu183H A102H / dBBDu072L (antibody, name in Kabat numbering, V domains shown)
VH: B1 VH with E107S, A117H
VL: B1 VL
Take B6: the fold change of affinity amounted to 0 fold.

B7: dBBDu183H V100iH / dBBDu072L (antibody, name in Kabat numbering, V domains shown)
VH: B1 VH with E107S, V115H
VL: B1 VL
Consider B7, for which the fold change of affinity turned out to be 0 fold.

B8: dBBDu183H A98K / dBBDu072L (antibody, name in Kabat numbering, V domains shown)
VH: B1 VH with A104K, E107S
VL: B1 VL
Turning to B8, the fold change of affinity is 0 fold.

B9: dBBDu183H D101K / dBBDu072L (antibody, name in Kabat numbering, V domains shown)
VH: B1 VH with E107S, D116K
VL: B1 VL
Take B9: the fold change of affinity was 0 fold.

B10: dBBDu183H A102E / dBBDu072L (antibody, name in Kabat numbering, V domains shown)
VH: B1 VH with E107S, A117E
VL: B1 VL
As for B10, the fold change of affinity was found to be 0 fold.

B11: dBBDu183H A100fE / dBBDu072L (antibody, name in Kabat numbering, V domains shown)
VH: B1 VH with E107S, A112E
VL: B1 VL
For the molecule B11, the fold change of affinity came to 0 fold.

B12: dBBDu183H V95H / dBBDu072L (antibody, name in Kabat numbering, V domains shown)
VH: B1 VH with V101H, E107S
VL: B1 VL
Consider B12, for which the fold change of affinity worked out at 0 fold.

B13: dBBDu183H A100fK / dBBDu072L (antibody, name in Kabat numbering, V domains shown)
VH: B1 VH with E107S, A112K
VL: B1 VL
For the molecule B13, the fold change of affinity was found to be 0 fold.

B14: dBBDu183H G100hK / dBBDu072L (antibody, name in Kabat numbering, V domains shown)
VH: B1 VH with E107S, G114K
VL: B1 VL
As for B14, the fold change of affinity came out at 0 fold.

B15: dBBDu183H Y94H / dBBDu072L (antibody, name in Kabat numbering, V domains shown)
VH: B1 VH with Y100H, E107S
VL: B1 VL
With B15, the fold change of affinity came to 0 fold.

B16: dBBDu183H T100bK / dBBDu072L (antibody, name in Kabat numbering, V domains shown)
VH: B1 VH with E107S, T108K
VL: B1 VL
Consider B16, for which the fold change of affinity came out at 0 fold.

B17: dBBDu183H D101H / dBBDu072L (antibody, name in Kabat numbering, V domains shown)
VH: B1 VH with E107S, D116H
VL: B1 VL
Consider B17, for which the fold change of affinity came out at 0 fold.

B18: dBBDu183H T100bH / dBBDu072L (antibody, name in Kabat numbering, V domains shown)
VH: B1 VH with E107S, T108H
VL: B1 VL
As for B18, the fold change of affinity was 0 fold.

B19: dBBDu183H G100hE / dBBDu072L (antibody, name in Kabat numbering, V domains shown)
VH: B1 VH with E107S, G114E
VL: B1 VL
Consider B19, for which the fold change of affinity came to 0 fold.

B20: dBBDu183H A100H / dBBDu072L (antibody, name in Kabat numbering, V domains shown)
VH: B1 VH with A106H, E107S
VL: B1 VL
Take B20: the fold change of affinity is 0 fold.

B21: dBBDu183H Y97H / dBBDu072L (antibody, name in Kabat numbering, V domains shown)
VH: B1 VH with Y103H, E107S
VL: B1 VL
In the case of B21, the fold change of affinity amounted to 0 fold.

B22: dBBDu183H V100iK / dBBDu072L (antibody, name in Kabat numbering, V domains shown)
VH: B1 VH with E107S, V115K
VL: B1 VL
For B22, the fold change of affinity is 0 fold.

B23: dBBDu183H V95K / dBBDu072L (antibody, name in Kabat numbering, V domains shown)
VH: B1 VH with V101K, E107S
VL: B1 VL
On to B23, for which the fold change of affinity is 0 fold.

B24: dBBDu183H A98H / dBBDu072L (antibody, name in Kabat numbering, V domains shown)
VH: B1 VH with A104H, E107S
VL: B1 VL
Take B24: the fold change of affinity turned out to be 0 fold.

B25: dBBDu183H S100aK / dBBDu072L (antibody, name in Kabat numbering, V domains shown)
VH: B1 VH with E107K
VL: B1 VL
Consider B25, for which the fold change of affinity amounted to 0 fold.

B26: dBBDu183H T100bE / dBBDu072L (antibody, name in Kabat numbering, V domains shown)
VH: B1 VH with E107S, T108E
VL: B1 VL
Consider B26, for which the fold change of affinity is 0 fold.

B27: dBBDu183H G100hH / dBBDu072L (antibody, name in Kabat numbering, V domains shown)
VH: B1 VH with E107S, G114H
VL: B1 VL
Take B27: the fold change of affinity was 0 fold.

B28: dBBDu183H H96K / dBBDu072L (antibody, name in Kabat numbering, V domains shown)
VH: B1 VH with H102K, E107S
VL: B1 VL
For B28, the fold change of affinity is 0 fold.

B29: dBBDu183H Y97K / dBBDu072L (antibody, name in Kabat numbering, V domains shown)
VH: B1 VH with Y103K, E107S
VL: B1 VL
Take B29: the fold change of affinity was 0 fold.

B30: dBBDu183H L100dH / dBBDu072L (antibody, name in Kabat numbering, V domains shown)
VH: B1 VH with E107S, L110H
VL: B1 VL
As to B30, the fold change of affinity turned out to be 0 fold.

B31: dBBDu183H H93K / dBBDu072L (antibody, name in Kabat numbering, V domains shown)
VH: B1 VH with H99K, E107S
VL: B1 VL
Consider B31, for which the fold change of affinity turned out to be 0 fold.

The record behind these values is patent publication US20210388087A1.
